Results taken from article doi:10.1101/2021.10.18.464900 (bioRxiv, 2021).

Columns and labels:
[1] = target: T1, SARS-CoV-2 S protein trimer (Trimer) (SARS-CoV-2, Wuhan/reference, stabilised); experiment: SPR
[2] = target: T2, soluble RBD of SARS-CoV-2 S protein (REF / Wuhan-1 variant) (SARS-CoV-2, UniProt P0DTC2); experiment: SPR
[3] = target: RBD of SARS-CoV-2 S protein, Beta (SA) variant (SARS-CoV-2, Beta (B.1.351, SA), strain); experiment: ELISA
[4] = target: T2, soluble RBD of SARS-CoV-2 S protein …; experiment: ELISA
[5] = target: RBD of SARS-CoV-2 S protein, Alpha (UK) variant (SARS-CoV-2, Alpha (B.1.1.7, UK) variant, strain); experiment: ELISA
[6] = target: T1, SARS-CoV-2 S protein trimer (Trimer); experiment: cryo-EM structure
[7] = target: RBD (Wuhan) expressed on the surface of HEK-293T cells (SARS-CoV-2, Wuhan, UniProt P0DTC2); experiment: flow cytometry on cells

Binder | kon [1] | fold faster on-rate to RBD than to Trimer [2] | stoichiometry N [6] | also measured
IMM20253 (antibody, V domains shown) VH: QVQLVESGGGVVQPGRSLRLSCTASGFTFSTYGMHWVRQAPGKGLEWVAVISYDGSSKHYAESVKGRFTISRDNSNNTLYLQMNRLRAEDTAVYYCARDGQPPGWGNYFDYWGQGTLVTVAS VL: SYVLTQPPSVSVAPGKTARITCGGNGIGSKSVYWYQQKPGQAPEVVVYDDSDRPSGIPERFSGSNSGNTATLTISRVEAGDEADYYCQVWDSSSDPWVFGGGTKLTVL | > 29500 M⁻¹ s⁻¹ | 19 fold |  | percent inhibition of ACE2 binding [3]: ≤ 40%; percent inhibition of ACE2 binding [4]: ≤ 40%; percent inhibition of ACE2 binding [5]: ≤ 40%
IMM20253 Fab (Fab, V domains shown) VH: QVQLVESGGGVVQPGRSLRLSCTASGFTFSTYGMHWVRQAPGKGLEWVAVISYDGSSKHYAESVKGRFTISRDNSNNTLYLQMNRLRAEDTAVYYCARDGQPPGWGNYFDYWGQGTLVTVAS VL: SYVLTQPPSVSVAPGKTARITCGGNGIGSKSVYWYQQKPGQAPEVVVYDDSDRPSGIPERFSGSNSGNTATLTISRVEAGDEADYYCQVWDSSSDPWVFGGGTKLTVL |  |  | 1 Fab:Trimer | 
IMM20190 (antibody, V domains shown) VH: EVQLVESGGGLVQPGGSLRLSCSASGFTVSSNYMSWVRQAPRKGLEWVSVIYAGGSTFYADSVKGRFTISRDNSKNTLLLQMNSLRAEDTAVYYCARDRGGYLDYWGQGTLVTVSS VL: DIQMTQSPSSLSASVGDRVTITCRASQGISNYLAWYQQKPGKVPKLLIYAASTLQSGVPSRFSGSGSGTDFTLTISSLQPEDVATYYCQKYNSAPGLTFGGGTKVEIK | > 29500 M⁻¹ s⁻¹ |  |  | binding result [2]: binds; binding result [7]: binds
IMM20190 Fab (Fab, V domains shown) VH: EVQLVESGGGLVQPGGSLRLSCSASGFTVSSNYMSWVRQAPRKGLEWVSVIYAGGSTFYADSVKGRFTISRDNSKNTLLLQMNSLRAEDTAVYYCARDRGGYLDYWGQGTLVTVSS VL: DIQMTQSPSSLSASVGDRVTITCRASQGISNYLAWYQQKPGKVPKLLIYAASTLQSGVPSRFSGSGSGTDFTLTISSLQPEDVATYYCQKYNSAPGLTFGGGTKVEIK |  |  | 3 Fab:Trimer | 
IMM20184 Fab (Fab, V domains shown) VH: EVQLVESGGGLVQPGGSLRLSCSASGFTFSSFWMSWVRQAPGKGLEWVATIREDGSEKYYVDSVKGRFSISRDNAKNSLYLQMNSLRAEDTAVYYCARSKWLRGSFDYWGQGTLVTVSS VL: NFMLTQPHSVSESPGKTVTISCTRRSGSIASNYVQWYQQRPGSAPTTVIYEDNQRPSGVPDRFSGSIDSSSNSASLTISGLQTEDEADYYCQSYDSSNPPGASWVFGGGTKLTVL |  |  | 3 Fab:Trimer | 
IMM20184 (antibody, V domains shown) VH: EVQLVESGGGLVQPGGSLRLSCSASGFTFSSFWMSWVRQAPGKGLEWVATIREDGSEKYYVDSVKGRFSISRDNAKNSLYLQMNSLRAEDTAVYYCARSKWLRGSFDYWGQGTLVTVSS VL: NFMLTQPHSVSESPGKTVTISCTRRSGSIASNYVQWYQQRPGSAPTTVIYEDNQRPSGVPDRFSGSIDSSSNSASLTISGLQTEDEADYYCQSYDSSNPPGASWVFGGGTKLTVL | > 29500 M⁻¹ s⁻¹ | 17 fold |  | koff [1]: 0.00023 s⁻¹; koff [2]: 0.0013 s⁻¹
